Reference: patent publication US20250277026A1

Assays:
human Claudin-4 (human) [1] = molecular target: human Claudin-4 (human) (UniProt O14493); assay: FACS, MCF7 cells (endogenous CLDN3 and CLDN4)
human Claudin-3 (human) [2] = molecular target: human Claudin-3 (human) (UniProt O15551); assay: FACS, Claudin-3-CHO-K1 cells (data not shown in the figures)
human Claudin-4 (human) [3] = molecular target: human Claudin-4 (human) (UniProt O14493); assay: FACS, Claudin-4-CHO-K1 cells, serial dilution of the antibody, MFI
human Claudin-4 (human) [4] = molecular target: human Claudin-4 (human) (UniProt O14493); assay: FACS, Claudin-4-CHO-K1 cells
human Claudin-3 (human) [5] = molecular target: human Claudin-3 (human) (UniProt O15551); assay: FACS, MCF7 cells (endogenous CLDN3 and CLDN4)
human Claudin-3 (human) [6] = molecular target: human Claudin-3 (human) (UniProt O15551); assay: FACS, Claudin-3-CHO-K1 cells, serial dilution of the antibody, MFI
human Claudin-3 (human) [7] = molecular target: human Claudin-3 (human) (UniProt O15551); assay: FACS, Claudin-3-CHO-K1 cells, 5 µg/ml

Sequence of human Claudin-3 (human) (O15551 whole entry): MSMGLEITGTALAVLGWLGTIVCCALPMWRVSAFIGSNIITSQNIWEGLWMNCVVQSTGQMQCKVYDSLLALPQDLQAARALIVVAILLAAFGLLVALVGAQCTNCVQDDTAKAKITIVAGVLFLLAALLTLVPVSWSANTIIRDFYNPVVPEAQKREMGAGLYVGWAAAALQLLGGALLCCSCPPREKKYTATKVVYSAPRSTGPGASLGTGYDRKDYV
Sequence of human Claudin-4 (human) (O14493 whole entry): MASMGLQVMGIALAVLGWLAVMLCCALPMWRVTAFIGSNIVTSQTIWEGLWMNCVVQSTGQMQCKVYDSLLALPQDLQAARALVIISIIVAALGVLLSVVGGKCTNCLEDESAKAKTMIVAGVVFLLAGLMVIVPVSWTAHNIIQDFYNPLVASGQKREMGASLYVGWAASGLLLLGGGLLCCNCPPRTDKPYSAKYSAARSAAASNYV

Substance	fold MFI over isotype control (human Claudin-4 (human) [1]) [fold]	fold MFI over isotype control (human Claudin-3 (human) [2]) [fold]	EC50 (read off the curve) (human Claudin-4 (human) [3]) [nM]	fold MFI over isotype control (human Claudin-4 (human) [4]) [fold]	fold MFI over isotype control (human Claudin-3 (human) [5]) [fold]	EC50 (read off the curve) (human Claudin-3 (human) [6]) [nM]	fold MFI over isotype control (human Claudin-3 (human) [7]) [fold]
anti-Claudin-4 antibody MAB4219 (R&D)	15	9.7	2	33	–	–	–
anti-claudin 3 antibody MAB4620 (R&D)	–	–	–	–	20	0.6	61
